Measurements: PMC10403546

Tests used:
[1] = molecular target: X16 UFO (CRF07_BC Env), uncleaved prefusion-optimized Env trimer of isolate BJOX016000.e15 (HIV-1); assay: cryo-EM structure
[2] = molecular target: X18 UFO (CRF01_AE Env), uncleaved prefusion-optimized Env trimer of isolate BJOX018000.e12 (HIV-1); assay: negative stain EM
[3] = molecular target: X18 UFO (CRF01_AE Env), uncleaved prefusion-optimized Env trimer of isolate BJOX018000.e12 (HIV-1); assay: cryo-EM structure

| Substance | stoichiometry N [1] | percentage of intact Env trimers, 8ANC195-bound, over 18 h [2] [%] | percentage of intact Env trimers, F6-bound, 1 h [2] [%] | percentage of intact Env trimers, F6-bound, 7 h [2] [%] | stoichiometry N [3] |
| --- | --- | --- | --- | --- | --- |
| X16 UFO (CRF07_BC Env), uncleaved prefusion-optimized Env trimer of isolate BJOX016000.e15 (natural protein) | 3 | – | – | – | – |
| X18 UFO (CRF01_AE Env), uncleaved prefusion-optimized Env trimer of isolate BJOX018000.e12 (natural protein) | – | 90 | 83 | 48 | 3 |
